Measured values published in a protein production outcome set (Wang et al. 2014).

Assay: label from the status in PepcDB records
In the case of “MMQSRRVQESLVGLVILAGLATLGVGLLWLRGNLAGANSYTLEVELDTAPGLAVGTQVRYRGVQVGRVTAIGFDANGVQVSVRINNVLIPRRAVPEIRQSGFIGQAFLDFTPKERVPEIPEGVTAFAPKCQPELVYCNGDRVTGVRTASLEDLVRAATRFTTALEESGLINNANTLILGATRIVNRADQSLTKVTTALDSFNALSNQARAELRNFGIAAQAVTRAANQISEIVEVNRNTINSSLRNIDSAARELRTTLKALHPLTNQLEQGELLANLDALIKNGAEAAANLNKVSGALSSPLIMLSIAQTLDAARATFINAQKLTNDLLKLTSDPSFQSDLRRLIQILRRLLASSQDLEQQFLALHATSLGEAHEPMPAISAPTAAAKPTKEEEPEP”, the protein production is reported as “failed”. With “MMREFEIERQFNIKIEYIKPNKGVYFVKTNKGNKCLKKINYGIQKLLFVYAAKEHLINNGFKYVDKYCLNTEGNPYALVNEDIYTLSEWIEGRECSFYDTEDLVKASKTLAKMHECSKGYEPPENSKLKSDLGRWPHLIEKRVKALDKMRDMARKKGNKKDFDMNYIKNVDFFKEQGIKSMNVLKNSKYESLCAVAEEEKGFCHHDYTYHNIIINNEDNVYVIDFDYCKRELRAYDISNFMIKVLKRSNWSMKTAELILDSYSSISKLDDDEYGVIYAFLIFPQRFWRLANRYYYNEVNWGQNTFNNKMEELIEERERYIKFIEDFREAYNLQ” the protein production was “failed”. With “MMRFLFVDRIVQLSPGEWIKGIKHVTRDDAYLTTDDHGRLCFMPSLIGETLGQLAAWNVMQHNHFTARPVAGVVSSARLYRPAYVGETILLESNIDSLDEKAVQYHSIAKVGNDIIFTIDGALGPMLPMTEFISTEVIRQQFAEIYRPGDWSSVLALSSPVLIEENCSDCGMINSSMQFDRILASQPGISLIAEKRITRSASYFPDHFPKRPVLPMTVLLECKLNLAKEFIARAKYDRAYRISELRKIKMNEFVHPGDVVVCQVKVKQQMDDELILSYRCEVDGKRVCVVDIVLIPKGK” the protein production was “failed”. In the case of “MMRLANGIVLDKDTTFGELKFSALRREVRIQNEDGSVSDEIKERTYDLKSKGQGRMIQVSIPASVPLKEFDYNARVELINPIADTVATATYQGADVDWYIKADDIVLTKDSSSFKAQPQAKKEPTQDKLEHHHHHH”, the protein production is reported as “not failed”. In the case of “MMRPKVYFKTFGCRTNLFDTQIMIKNLQNFELTEIEESADIVVVNSCTVTNGADSGVRSYLHRLKSEGKRVYLTGCGVLTRGEEIFTQELAFGVFGHSYKEQIDSLLSQKTRFSFKGDLEHIDSTVITEFIGKSRAFVKVQEGCDFSCSYCIIPSVRGKARSLPVDRIVSQVEILAQHGFGEFVLTGTNVGSYGKESGLNVAKLLKALSQIKGVKRLRLGSLEPSQIDAEFMELLEEPFMARHLHIALQHTSPKMLQIMNRRNEAQGDLALFERLAQKGYALGTDFILGHPGESEEVWKEAWERFVAFPLTHLHAFVYSPREGTPSSLMKDRISGNIAKERMRILQERVRENNHHFRQKGEKLWVLIESEREGGLYQGLDQFFNRIEIRSSDSLAGRWLEVSDYEAESEINRAELL”, the protein production is reported as “failed”. In the case of “MMRVKFNGKELDTDFKTSLEFFENISKNENDVWIINGFATKENIALNENDELFCIEKNTLPPKDALDAMMRARHTPKLHDKLKNGRVAVCGLGGLGSHIAINLARSGVGYLKLIDFDVIEPSNLNRQAYRVSDLGKFKTEALKEQISEINPYISVEICTLKIDEDNLESLFKDIDIVCEAFDSAIAKAMIAQNFHRFYKDGILICASGLAGYGDSNSIQTRKIAKNFYVCGDLVNGAKLGNGLMAPRVNICAGHQSNLVLELLANKELEHHHHHH”, the protein production is reported as “not failed”. For “MMRYKEEKEVKKEAFRKYLESSGVLDSLTKVLVSLYEQNDKPSSALEFIQQKLGGPSVSDYEKLQAEKSDLQIKYNELLAKHQETLRELNGVKSLHSRNSSKDDADRETLEAEHTTLVTPHH”, the protein production was “failed”. For “MMSGLVYRKRRRQNMTALERSWFEEAQQSMHGWDFSHLAGRWQTADLPWDYAALVREHLSADDRWLDIDTGGGELMGRFNPQPALTAVTEGWQPNIELLKQTVVKKGITLYPDAAEQLTAVPNSTFDIVTNSHGAMPVKRIAEVLKPGGRFVTQQVGATNNYALSRFFDEHYETAYPDNQLLTVMAQMQAAGFEILRAEQAYAALSFTDVGAIVYYATVIPWEFPHFDVARMLPKLHQLQSLLAINGRVTTFEDRFMIIARKLARRD”, the protein production was “failed”. With “MMSKVVSKMKSFLGFDEFEDEDEVMEEEEVMEEEESFAPVLSSKKNGKVVNIHTANTAKLMITKPLVYDDATEICTALKNRKIVVINTTSLELRTAQRLIDFVGGACYALCGELQEVEKGVFIVSPSNVEVSNELKSELSNKGMFNWASKLEHHHHHH” the protein production was “not failed”. For “MMSNLIILPMLLPFVCALILVFTKNKNRISKILSITTMIVNTMISIALLIYVVNHKPITLDFGGWKAPFGIQFLGDSLSLLMVSVSSFVVTLIMAYGFGRGEKRVNRFHLPTFILLLTVGVIGSFLTSDLFNLYVMFEIMLLASFVLVTLGQSVEQLRAAIVYVVLNILGSWLLLLGIGMLYKTVGTLNFSHLAMRLNHMENNQTITMISLVFLVAFSSKAALVIFMWLPKAYAVLNTELAALFAALMTKVGAYALIRFFTLLFDHHPSVTHTLLVFMACITMIIGAFGVIAYKDIKKIAAYQVILSIGFIILGLGSHTISGVNGAIFYLANDIIVKTLLFFVIGSLVYMSGYRNYQYLSGLAKREPFFGVAFVVVIFAIGGVPPFSGFPGKVLIFQGAITNGNYIGLALMIVTSLIAMYSLFRVMFIMYFGDADGEQVQFRPLPIYRKGLLSVLVVVVLAMGIAAPVVLKVTEDATNLNMKEDVFQKNVNTHLKEVNHK”, the protein production was “failed”. In the case of “MMTDEARAKLAAIPMLAGYTGPLERLGGLTNLVFRAGDLCLRIPGKGTEEYINRANEAVAAREAAKAGVSPEVLHVDPATGVMVTRYIAGAQTMSPEKFKTRPGSPARAGEAFRKLHGSGAVFPFRFELFAMIDDYLKVLSTKNVTLPAGYHDVVREAGGVRSALAAHPLPLAACHCDPLCENFLDTGERMWIVDWEYSGMNDPLWDLGDLSVEGKFNANQDEELMRAYFGGEARPAERGRVVIYKAMCDLLWTLWGLIQLANDNPVDDFRAYADGRFARCKALMETPEFSRHLAAVRMG”, the protein production is reported as “not failed”. For “MMTKFWNDRYKSDEYFYGEEPNTFIKEQAFRLANHNKVIAFAEGEGRNAVFLARQGNEVTAIDYSEDGLEKTKKLAEKHNVNVHTKKVDLLADSLPENEYDAAIMVFGHFHDDYKKMILGKMIQTIKPGGLIMFEVYSKKQINYGTGGPKDVDMLYDPIDILTWCEEHKVIHFFNGEQERIEGKGHTGLADVIQVVIRK”, the protein production was “failed”. For “MMTKYGVVGTGYFGAELARFMSKVEGAKITAIYDPVNAAPIAKELNCVATATMEALCSHPDVDCVIIASPNYLHKAPVIAAAKAGKHVFCEKPIALNYQDCKDMVDACKEAGVTFMAGHVMNFFHGVRHAKALIKAGEIGEVTQVHTKRNGFEDVQDEISWKKIRAKSGGHLYHHIHELDCTLFIMDETPSLVSMAAGNVAHKGEKFGDEDDVVLITLEFESGRFATLQWGSSFHYPEHYVLIEGTTGAILIDMQNTAGYLIKAGKKTHFLVHESQAEDDDRRNGNISSEMDGAIAYGKPGKRTPMWLSSIMKLEMQYLHDVINGLEPGEEFAKLLTGEAATNAIATADAATLSSNEGRKVKLTEILGLEHHHHHH”, the protein production was “not failed”. For “MMTLNAFIEKLSTQPELIEFTETMAVIESHYEFTPTEFANGNTVNLADQNNGSCKIFAFALLNQLSVDQTLACFGQYYRQDVLENPQGDDHQNIRNFMVTGWAGVQFKAQALQAK”, the protein production was “failed”. For “MMTLSDLPSDLAEEVLSKIPVTSLRGVRATCKKWNTLSKDRSFTRKHLAQAKAAAAREFMVVMVMDFQVYLMGINLHKDVDATINGQGKLISLDDSNQVDISYVYHCDSLVLCIPKDCARLVVWNPYWGQTLWFKPTSLRHFPHWYMYAIGYQMRRGNRDAKTSRWLLTCRPTTKTITKNTIDHL”, the protein production was “failed”. In the case of “MMTPEQIATVMTGKVEAAGKGRHEAVLASPMIQNHAPFLHLADDGALICAWFGGTLEGKSDISIFTSVLAAGSNKWGEPQRLSFDPDHSEQNPVLFAAPGNTLLLFHTSQPSGNQDECRIRMAEVSRDASDPTRLTAGEGLYLDLPRGCFVRAPLTVRADGAWLLPIFRCIQRPGQKWNGSHDRAAVGISEDCGKSWRLEDIDQSTGCVHMSPLVIGDEKLAAVFRRRQADFVYRTESADGGRTWSAPQATDVPNNNSSIAAIRLNDGRIAMICNPTNAAMSSDRRASLYDELGEDDDRPDANPDGGCVPIWGVPRAPVTVCISEDGAKSFPQRITIEDGPGTCLSNNSIDGHNKEMSYPWLLEGADGSLHIAYTYYRRAIKYVRLAPGWARAADGR”, the protein production is reported as “failed”. For “MMTRNKEFPMQMQSVTPARLVTTGLAFGESPRWHGGRLWVCNWGTSEIIATDAHGNREIMLIVPAVLPYSIDWLQDGRLLVVSGREGLLLRQEVDGKLVTHADLRGLSKSPWNEIVVDGRGNIYVNGGGPAPAAGEYFGPGTVVLITADGAVRQVADDIAFANGMAVTPDNKTLILAESHGNRLTAFDIAADGSLSNRRAWADLDGYPDGICLDAEGAVWYADVPNKHCVRVREGGEVLQTVTVDRGCFACMLGGADRRTLFIVAAEWRGFEHMVGDARTGQVLSVDAPAPGVGWP”, the protein production was “failed”. For “MMTTLQILFWLSLFLVFYTHLGYGILLYMLVKLKELFVKPVRRQLPPDKRLPDVTLFITAFNEEEVVDEKMRNCLGLDYPADKLHIVWTTDGSNDSTNQRLEDWPQATVHFQPLRQGKTAAMTRGMMLVDTPLVVFTDANTMLNREAIREIVRAFEDPKVGCVAGEKRIAVQEKDGAAAGGEGIYWKYESTLKALDARLYSAVGAAGELFAVRRELFTVMEPDTLLDDFILSLRIAMQGYKIAYCTQAYAIESGSADIREEQKRKVRIAAGGLQSIWRLRELLNPFRYGVLTFQYVSHRVLRWSLAPVLLFALLPLNIAILLAGGSPVCYGTILALQLLFYIMGGWGYYLSTRQVKNKLLFIPYYFLFMNINVMKGVNYLRKKKGTGAWEKAKRTKTESLNQ”, the protein production was “failed”. With “MMTTRNGSLRFFNHTFSFYDEATCVVREEELQRELMPRHVSFILDGNRRWAKRDGLTTAQGHEAGTKRIIEIAERIGEETRKEVRVSVIGNKTKIPESLLKEIHEIEEATKATRISISSWQ” the protein production was “failed”. With “MMVDTGVDHRAVSSHDGPDAGRRVFGAADPRFACVVRAFASMFPGRRFGGGALAVYLDGQPVVDVWKGWADRAGWVPWSADSAPMVFSATKGMTATVIHRLADRGLIDYEAPVAEYWPAFGANGKATLTVRDVMRHQAGLSGLRGATQQDLLDHVVMEERLAAAVPGRLLGKSAYHALTFGWLMSGLARAVTGKDMRLLFREELAEPLDTDGLHLGRPPADAPTRVAEIIMPQDIAANAVLTCAMRRLAHRFSGGFRSMYFPGAIAAVQGEAPLLDAEIPAANGVATARALARMYGAIANGGEIDGIRFLSRELVTGLTRNRRQVLPDRNLLVPLNFHLGYHGMPIGNVMPGFGHVGLGGSIGWTDPETGVAFALVHNRLLSPLVMTDHAGFVGIYHLIRQAAAQARKRGYQPVTPFGAPYSEPGAAAG” the protein production was “failed”. With “MMVKDGLRYWPLGMAFLLGVGLQPVRAAEMFLPPTGLAQEELIALTEVDSLAQARLPQSEGSAIDLLPLPPQPTAAVDPPREAPASLPTTIEVKGDSPAPPVEPSPPTTDNSPGVPTTPQLAAEQAVQEARLALLREGDRYWQLGDLTTARTYYQKAKADLNVPPPHVIPPAVLEISQLPPAAQVYWREVQSGSQLYTAQAVPLQLLVEQFPEFIPAQVRFGEFLAQQGSLKEACAHLEKAASLYPDQPDIQRGLITLYDRQQQWLEAALAAQRFALLNPDHPATPEFEQLAAERMQRFRRRLQGQLREGMVVGALTGLVGVALTGNPLLSLDSIQMMTLMMQGESALGRSAARNISRQVKLLEDAAVQTYVNEVGQRLAKVAGRNEFAYEFFVIKDNDLNAFALPGGKIFVNSGAILKASTEAELAGLLAHEIAHTVLSHGFRLMTQGTATANLTRLLPAGGYVTGIVVTSYSREMEREADILGTQILARAGYAADGLLNLMHTLKKEYRNQEPPLPWFSTHPPTNERIRYIRGLMRDRGYTPFAFEGLERHQRIQAHLRTLVDPPNAPKSKRETAKTPQ” the protein production was “failed”.
